{
  "source": "the supplement of paper PMC9170038",
  "tested_on": "MS2 coat protein",
  "experiment": "apparent KD of MS2 coat protein; designed switch direction (-1 OFF switch, 1 ON switch): -1; higher = weaker reporter binding",
  "in_short": "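For each design, the apparent KD is the median over clusters of curves fitted to normalised cluster fluorescence. Clusters held RNA switches with common flanks, transcribed on Illumina chips by stalled E. coli RNA polymerase. These were titrated with SNAP-549-labelled MS2 coat protein, doubling from 0.7 or 1.5 nM to 3 µM, without input, with 200 uM small-molecule ligand, or with an oligonucleotide input.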",
  "key": {"[1]": {"conditions": "input ligand: microRNA oligo, concentration not stated"}, "[2]": {"conditions": "Eterna round: R95, input ligand: FMN 200 uM"}, "[3]": {"conditions": "Eterna round: R95, input ligand: microRNA oligo, concentration not stated"}, "[4]": {"conditions": "Eterna round: R95, input ligand: none"}},
  "data": [
    {"sequence": "UAGUUAAACACAGGAUAUCGCCUCUUAUUACAUGAGGAUCACCCAUGUUUAGUUAGUUACAUGUUCGAGAAGGGUGAAGUAGUU [JR_ExcNG2_Sub041] (Eterna round: R96, puzzle: Exclusion NG 2)", "values": [
      {"measurement": "apparent KD of MS2 coat protein", "setting": "input ligand: FMN 200 uM", "result": 0.793, "unit": "µM"},
      {"measurement": "apparent KD of MS2 coat protein", "setting": "[1]", "result": 1.3, "unit": "µM"},
      {"measurement": "apparent KD of MS2 coat protein", "setting": "input ligand: none", "result": 0.555, "unit": "µM"}
    ]},
    {"sequence": "GAGAAACAUGAGGAUCACCCAUGUGAGGAUAUGUGAGACUAAAGCGCGCAGGCUAAGGACAGAAGGCACAAGGA [Excls1-Ia] (puzzle: Exclusion 1)", "values": [
      {"measurement": "apparent KD of MS2 coat protein", "setting": "[2]", "result": 0.0575, "unit": "µM"},
      {"measurement": "apparent KD of MS2 coat protein", "setting": "[3]", "result": 0.0426, "unit": "µM"},
      {"measurement": "apparent KD of MS2 coat protein", "setting": "[4]", "result": 0.053, "unit": "µM"}
    ]},
    {"sequence": "AUUAUAUAGCAAGGAUAUAGAAUAUUAUUUUAACAUGAGGAUCACCCAUGUAACCUUAUGUGUAGCUAGAAGGUGCAUUUAUUA [Title] (Eterna round: R96, puzzle: Exclusion NG 2)", "values": [
      {"measurement": "apparent KD of MS2 coat protein", "setting": "[1]", "result": 0.0641, "unit": "µM"}
    ]},
    {"sequence": "AUCAUGUUAGGAUAUUACGACGCAGCGGGUAGCCCGUAAAGUAAGAAGGAACAUGAGGAUCACCCAUGUUCAAA [EX4 B.22] (Eterna round: R97, puzzle: Exclusion 4)", "values": [
      {"measurement": "apparent KD of MS2 coat protein", "setting": "input ligand: FMN 200 uM", "result": 0.0328, "unit": "µM"},
      {"measurement": "apparent KD of MS2 coat protein", "setting": "input ligand: none", "result": 0.0196, "unit": "µM"}
    ]},
    {"sequence": "CUAACAUGCUGGUGAUCAUACAUGAGGAUCACCCAUGUAACAAGCUUUUUGUUCGUCUUAUAAGAUCACCAGCAUGU [Stov1/9-B3] (Eterna round: R97, puzzle: Sensor, turn-off variant 1)", "values": [
      {"measurement": "apparent KD of MS2 coat protein", "setting": "input ligand: FMN 200 uM", "result": 0.0138, "unit": "µM"},
      {"measurement": "apparent KD of MS2 coat protein", "setting": "input ligand: none", "result": 0.0182, "unit": "µM"}
    ]},
    {"sequence": "AAAAGUCCGGAGGAUAUCCACAAGCUCGGGAAAGGAGAAGGCCGGACAUGAGGAUCACCCAUGUGUCUUCUUGC [Rebila] (puzzle: Exclusion 6)", "values": [
      {"measurement": "apparent KD of MS2 coat protein", "setting": "[2]", "result": 0.358, "unit": "µM"},
      {"measurement": "apparent KD of MS2 coat protein", "setting": "[3]", "result": 0.063, "unit": "µM"},
      {"measurement": "apparent KD of MS2 coat protein", "setting": "[4]", "result": 0.0945, "unit": "µM"}
    ]},
    {"sequence": "GGGCCCGGAGGAUAUACAAUGGGCCCGGGAAAUUGGGCCCUACAUGAGGAUCACCCAUGUAGAAGGCCGGGCCC [-40.2, -38.1 kcal A 24%, 5c,0] (Eterna round: R97, puzzle: Exclusion 2)", "values": [
      {"measurement": "apparent KD of MS2 coat protein", "setting": "input ligand: FMN 200 uM", "result": 0.0161, "unit": "µM"},
      {"measurement": "apparent KD of MS2 coat protein", "setting": "input ligand: none", "result": 0.0125, "unit": "µM"}
    ]},
    {"sequence": "ACAUGAGGAUCACCCAUGUACACGUAAUGGCUCAUGUAGAGUGAGGAUAUGUGAGACGAACGAGCACAGAAGGCACAAGACAGG [Deportation 10 - Jieux - Exclusion NG 3] (Eterna round: R96, puzzle: Exclusion NG 3)", "values": [
      {"measurement": "apparent KD of MS2 coat protein", "setting": "input ligand: FMN 200 uM", "result": 0.0383, "unit": "µM"},
      {"measurement": "apparent KD of MS2 coat protein", "setting": "[1]", "result": 0.0238, "unit": "µM"},
      {"measurement": "apparent KD of MS2 coat protein", "setting": "input ligand: none", "result": 0.0348, "unit": "µM"}
    ]},
    {"sequence": "UCGGCGCGAGGAUAUACGUUUGCUUUUUGGGAUCGUUGCGUACAUGAGGAUCACCCAUGUAGAAGGCGCGCCGC [Apr-15 SS2-26] (puzzle: Exclusion 2)", "values": [
      {"measurement": "apparent KD of MS2 coat protein", "setting": "[3]", "result": 0.0159, "unit": "µM"}
    ]},
    {"sequence": "UAUUUAAUUAACAAGCUUUACAUGAGGAUCACCCAUGUGAUCAUGCUCGUCUUAUAAUUAAUUAAUUAAUUAAUUAA [Stov1/6-A2] (Eterna round: R97, puzzle: Sensor, turn-off variant 1)", "values": [
      {"measurement": "apparent KD of MS2 coat protein", "setting": "input ligand: FMN 200 uM", "result": 0.0516, "unit": "µM"},
      {"measurement": "apparent KD of MS2 coat protein", "setting": "input ligand: none", "result": 0.0628, "unit": "µM"}
    ]},
    {"sequence": "GCAGAAAGUGUAGGAUAUAGAUAUUAGCGGAAACGCAAUACAUGAGGAUCACCCAUGUUUCCUCACUAGAAGGGCAAAAGCUGC [EXNG2 V2 d] (Eterna round: R96, puzzle: Exclusion NG 2)", "values": [
      {"measurement": "apparent KD of MS2 coat protein", "setting": "input ligand: FMN 200 uM", "result": 0.0187, "unit": "µM"},
      {"measurement": "apparent KD of MS2 coat protein", "setting": "[1]", "result": 0.0125, "unit": "µM"},
      {"measurement": "apparent KD of MS2 coat protein", "setting": "input ligand: none", "result": 0.0172, "unit": "µM"}
    ]},
    {"sequence": "UUUUCUUUUGUGAGGAUAUACUUGUUUUUUUUUUUGUAGAAGGCACAUGAGGAUCACCCAUGUACUCUUUCCUG [JR_BME4_Sub024] (puzzle: Brourd's mod of Exclusion 4)", "values": [
      {"measurement": "apparent KD of MS2 coat protein", "setting": "[3]", "result": 0.0201, "unit": "µM"}
    ]},
    {"sequence": "UAAAGAUAAGGAUAUUGAAGGUUCGACAUGAGGAUCACCCAUGUUAUGUUGGAAAAGGGACAAGAAGGUAUGAAAU [salish99_ex5_r4_207] (Eterna round: R97, puzzle: Exclusion 5)", "values": [
      {"measurement": "apparent KD of MS2 coat protein", "setting": "input ligand: FMN 200 uM", "result": 0.0359, "unit": "µM"},
      {"measurement": "apparent KD of MS2 coat protein", "setting": "input ligand: none", "result": 0.037, "unit": "µM"}
    ]},
    {"sequence": "AAAAAACAUGAGGAUCACCCAUGUGAGGAUAUGAUGCGAAUAAAGAAAGAAGAAAGCAUCAGAAGGCACAUAUG [Mod of Disincluded 3 (little more stable fmn state)] (Eterna round: R96, puzzle: Exclusion 1)", "values": [
      {"measurement": "apparent KD of MS2 coat protein", "setting": "[1]", "result": 0.0666, "unit": "µM"}
    ]}
  ]
}
